Assay results: paper PMC5338925, “Human Nup98 regulates the localization and activity of DExH/D-box helicase DHX9” (eLife, 2017)
One block for each molecule: values may come before it.

How the values were obtained:
GST-DHX9 (human) = GST-DHX9 (human) (UniProt Q08211)
GST-Nup98^1–863 = molecular target: T1, GST-Nup98^1–863 (human, UniProt P52948-4 1-863); test: bead halo assay; GST-Nup98 1-863 held on glutathione magnetic agarose beads (bait); DHX9 domains with C-terminal eGFP (prey) detected by fluorescence microscopy; PBS-T, 10 min, 4 °C; pre-treated with RNase A, poly I:C RNA or buffer alone; details: both partners purified
T1 construct: Nup98, human, residues 1-863; Held on glutathione magnetic agarose beads by its GST; also called GST-Nup98 (bead halo bait); source: purified recombinant protein (E. coli BL21-CodonPlus(DE3), glutathione-Sepharose 4B)
T1 sequence (looked up): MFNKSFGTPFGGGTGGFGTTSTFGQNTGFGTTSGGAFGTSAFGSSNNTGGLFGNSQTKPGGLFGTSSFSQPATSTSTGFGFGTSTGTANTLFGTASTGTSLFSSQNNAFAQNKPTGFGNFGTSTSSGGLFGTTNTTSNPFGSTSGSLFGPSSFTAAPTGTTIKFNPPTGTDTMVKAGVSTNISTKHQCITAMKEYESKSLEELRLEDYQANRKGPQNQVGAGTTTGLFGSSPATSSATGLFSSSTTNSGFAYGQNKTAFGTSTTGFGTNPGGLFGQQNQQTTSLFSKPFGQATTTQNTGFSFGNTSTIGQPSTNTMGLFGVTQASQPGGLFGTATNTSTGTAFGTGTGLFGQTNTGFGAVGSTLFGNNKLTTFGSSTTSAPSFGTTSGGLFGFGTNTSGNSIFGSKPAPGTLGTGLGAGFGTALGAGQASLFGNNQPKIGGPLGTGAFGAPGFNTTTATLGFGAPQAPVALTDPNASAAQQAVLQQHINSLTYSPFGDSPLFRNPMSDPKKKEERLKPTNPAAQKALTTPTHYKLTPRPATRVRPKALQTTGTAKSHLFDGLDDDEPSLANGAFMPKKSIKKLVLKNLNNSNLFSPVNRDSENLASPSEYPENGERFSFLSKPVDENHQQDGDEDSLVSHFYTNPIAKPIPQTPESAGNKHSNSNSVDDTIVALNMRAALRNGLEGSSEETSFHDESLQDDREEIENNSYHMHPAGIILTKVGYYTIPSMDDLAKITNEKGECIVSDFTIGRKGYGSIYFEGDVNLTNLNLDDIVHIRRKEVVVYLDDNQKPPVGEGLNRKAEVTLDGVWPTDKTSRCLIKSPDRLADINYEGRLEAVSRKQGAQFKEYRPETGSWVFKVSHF

ATPase activity (ATP hydrolysis rate) of GST-DHX9 with excess RNA (poly I:C) and increasing concentrations of GST-Nup98 (GST-DHX9 (human)): 5 fold
Molecule: GST-Nup98^1–920 (from UniProt P52948-4 1-920) (natural protein)

binding result (GST-Nup98^1–863): binds
B1: DHX9 821–1270 tagged with eGFP (domain or fragment, human, UniProt Q08211 821-1270, looked up)
chain: IEPPPLDAVIEAEHTLRELDALDANDELTPLGRILAKLPIEPRFGKMMIMGCIFYVGDAICTIAAATCFPEPFINEGKRLGYIHRNFAGNRFSDHVALLSVFQAWDDARMGGEEAEIRFCEHKRLNMATLRMTWEAKVQLKEILINSGFPEDCLLTQVFTNTGPDNNLDVVISLLAFGVYPNVCYHKEKRKILTTEGRNALIHKSSVNCPFSSQDMKYPSPFFVFGEKIRTRAISAKGMTLVTPLQLLLFASKKVQSDGQIVLVDDWIKLQISHEAAACITGLRAAMEALVVEVTKQPAIISQLDPVNERMLNMIRQISRPSAAGINLMIGSTRYGDGPRPPKMARYDNGSGYRRGGSSYSGGGYGGGYSSGGYGSGGYGGSANSFRAGYGAGVGGGYRGVSRGGFRGNSGGDYRGPSGGYRGSGGFQRGGGRGAYGTGYFGQGRGGGGY
notes: also called C-terminal segment (residues 821–1270); C-terminal domain of DHX9-GFP; source: purified recombinant protein; not shown: eGFP, C-terminal, kept

binding result (GST-Nup98^1–863): binds
B2: DHX9 1–380 tagged with eGFP (domain or fragment, human, UniProt Q08211 1-380, looked up)
chain: MGDVKNFLYAWCGKRKMTPSYEIRAVGNKNRQKFMCEVQVEGYNYTGMGNSTNKKDAQSNAARDFVNYLVRINEIKSEEVPAFGVASPPPLTDTPDTTANAEGDLPTTMGGPLPPHLALKAENNSEVGASGYGVPGPTWDRGANLKDYYSRKEEQEVQATLESEEVDLNAGLHGNWTLENAKARLNQYFQKEKIQGEYKYTQVGPDHNRSFIAEMTIYIKQLGRRIFAREHGSNKKLAAQSCALSLVRQLYHLGVVEAYSGLTKKKEGETVEPYKVNLSQDLEHQLQNIIQELNLEILPPPEDPSVPVALNIGKLAQFEPSQRQNQVGVVPWSPPQSNWNPWTSSNIDEGPLAFATPEQISMDLKNELMYQLEQDHDLQA
notes: also called N-terminal region (residues 1–380); N-terminal domain of DHX9-GFP; source: purified recombinant protein; not shown: eGFP, C-terminal, kept
